Measured values as given in publication PMC7229837, “Molecular architecture of the DNA-binding sites of the P-loop ATPases MipZ and ParA from Caulobacter crescentus”.

Key:
[1] = target: T1, ParA WT (Caulobacter crescentus, UniProt B8GW31 1-267); assay: HDX-MS; 1 mM ATPgS; regions R1, R2, R4 protected; EMSA: 10 mM HEPES/NaOH pH 7.2, 150 mM NaCl, 10 mM MgCl2, 0.05% Tween 20, 0.46 mM ATPgS, room temp; BLI: 50 mM HEPES/NaOH pH 7.2, 50 mM NaCl, 5 mM MgCl2, 0.1 mM; conditions: protein: recombinant; tags: C-terminal His6; chain copies: 2; blunt
T1 sequence: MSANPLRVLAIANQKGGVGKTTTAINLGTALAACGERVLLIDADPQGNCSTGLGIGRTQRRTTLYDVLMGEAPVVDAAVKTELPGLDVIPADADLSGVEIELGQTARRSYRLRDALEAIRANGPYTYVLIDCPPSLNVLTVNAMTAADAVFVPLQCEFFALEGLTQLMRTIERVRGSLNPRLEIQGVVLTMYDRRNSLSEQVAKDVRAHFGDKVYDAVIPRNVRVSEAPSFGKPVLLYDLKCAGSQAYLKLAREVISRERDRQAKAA

[2] = target: T2, MipZ D42A (Caulobacter crescentus, UniProt Q9A6C9 1-278, D42A); assay: HDX-MS; 1 mM ATPgS; regions R1, R3, R4 protected; EMSA: 10 mM HEPES/NaOH pH 7.2, 150 mM NaCl, 10 mM MgCl2, 0.05% Tween 20, 0.46 mM ATPgS, room temp; BLI: 50 mM HEPES/NaOH pH 7.2, 50 mM NaCl, 5 mM MgCl2, 0.1 mM; conditions: protein: recombinant; tags: C-terminal His6 (pET21a); chain copies: 2; blunt
T2 sequence: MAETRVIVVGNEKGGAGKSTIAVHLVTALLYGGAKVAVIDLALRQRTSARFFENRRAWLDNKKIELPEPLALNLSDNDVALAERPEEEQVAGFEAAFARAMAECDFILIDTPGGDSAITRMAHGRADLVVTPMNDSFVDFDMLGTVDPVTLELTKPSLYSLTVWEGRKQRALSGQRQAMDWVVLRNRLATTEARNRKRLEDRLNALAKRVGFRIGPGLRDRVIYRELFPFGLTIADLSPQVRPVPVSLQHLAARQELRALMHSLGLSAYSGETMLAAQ

B1: ran14-up/ran14-lo 14 bp (dsDNA)
DNA 1: GCCGCCGCCGCCGC
DNA 2: GCGGCGGCGGCGGC
- binding result [1]: binds
- binding result [2]: binds
